Laboratory results reported in patent US7560527.

Molecular target: natural cellular receptor for adenovirus on 293 human cells (human)
Test: cell-based or functional assay

native Ad5 fiber carried by the recombinant AdLacZ virus (from UniProt P11818 1-581)
degree of inhibition of the infection of 293-cells with AdLacZ by recombinant Ad5 knob at 100 µg/ml: 95%
